# Measured values taken from patent US20150344570A1 (published 2015).
# T1: FcγRIIa R extracellular domain with C-terminal His tag (human, UniProt P12318 34-217)
# T1 construct: extracellular domain; also called FcgRIIa R; 2aR; not shown: His tag at the C terminus
# T1 sequence (looked up): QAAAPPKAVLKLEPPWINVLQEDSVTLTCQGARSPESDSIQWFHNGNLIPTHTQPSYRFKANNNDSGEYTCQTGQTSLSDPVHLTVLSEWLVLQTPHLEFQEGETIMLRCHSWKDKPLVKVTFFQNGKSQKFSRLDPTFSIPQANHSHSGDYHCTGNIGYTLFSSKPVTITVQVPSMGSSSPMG
# How the values were obtained:
# [1] = biological target: T1, FcγRIIa R extracellular domain with …; test: SPR (Biacore), relative FcγRIIa R binding, GpH7-B3/GpL16-k0 = 100
# Description: Analysis of interaction between objective antibody and the FcγR was carried out using Biacore T100 (GE Healthcare). HBS-EP+ (GE Healthcare) was used as the running buffer, and the measurement temperature was set to 25° C. Chips produced by immobilizing the antigen peptide by the amine coupling method to a Series S Sencor Chip CM5 (GE Healthcare), or alternatively, chips produced by allowing preliminarily biotinylated antigen peptides to interact with and immobilize onto a Series S Sensor Chip SA (certified) (GE Healthcare) were used. Antibodies of interest were captured onto an antigen peptide-immobilized chip, and allowed to interact to each FcγR diluted with running buffer. To regenerate and repeatedly use the chip, the antibodies captured on the chip were washed off by reacting 10 mM glycine-HCl, pH 1.5.
# [2] = biological target: T1, FcγRIIa R extracellular domain with …; test: SPR (Biacore), relative FcγRIIa R binding, GpH7-A5/GpH7-B3/GpL16-k0 = 100
binder,measurement,setting,value
"GpH7-B3 variant T335_07I/GpL16-k0 (antibody, human IgG1, kappa, homodimerized: alteration in both H chains; also called Ho Ab T335_07I) heavy: not shown light: DIVMTQSPLSLPVTPGEPASISCQASESLVHSNRNTYLHWYLQKPGQSPQLLIYKVSNRFSGVPDRFSGSGSGTDFTLKISRVEAEDVGVYYCSQNTHVPPTFGQGTKVEIERTVAAPSVFIFPPSDEQLKSGTASVVCLLNNFYPREAKVQWKVDNALQSGNSQESVTEQDSKDSTYSLSSTLTLSKADYEKHKVYACEVTHQGLSSPVTKSFNRGEC",Ho/Con_2aR,[1],107 % of control
"GpH7-B3 variant S337_16H/GpL16-k0 (antibody, human IgG1, kappa, homodimerized: alteration in both H chains; also called Ho Ab S337_16H) heavy: not shown light: DIVMTQSPLSLPVTPGEPASISCQASESLVHSNRNTYLHWYLQKPGQSPQLLIYKVSNRFSGVPDRFSGSGSGTDFTLKISRVEAEDVGVYYCSQNTHVPPTFGQGTKVEIERTVAAPSVFIFPPSDEQLKSGTASVVCLLNNFYPREAKVQWKVDNALQSGNSQESVTEQDSKDSTYSLSSTLTLSKADYEKHKVYACEVTHQGLSSPVTKSFNRGEC",Ho/Con_2aR,[1],107 % of control
"GpH7-A5/GpH7-B3 variant A330_01G/GpL16-k0 (antibody, human IgG1, kappa, heterodimerized: alteration in one H chain only; also called He Ab A330_01G) heavy 1: not shown heavy 2: not shown light: DIVMTQSPLSLPVTPGEPASISCQASESLVHSNRNTYLHWYLQKPGQSPQLLIYKVSNRFSGVPDRFSGSGSGTDFTLKISRVEAEDVGVYYCSQNTHVPPTFGQGTKVEIERTVAAPSVFIFPPSDEQLKSGTASVVCLLNNFYPREAKVQWKVDNALQSGNSQESVTEQDSKDSTYSLSSTLTLSKADYEKHKVYACEVTHQGLSSPVTKSFNRGEC",He/Con_2aR,[2],109 % of control
"GpH7-B3 variant S337_15Y/GpL16-k0 (antibody, human IgG1, kappa, homodimerized: alteration in both H chains; also called Ho Ab S337_15Y) heavy: not shown light: DIVMTQSPLSLPVTPGEPASISCQASESLVHSNRNTYLHWYLQKPGQSPQLLIYKVSNRFSGVPDRFSGSGSGTDFTLKISRVEAEDVGVYYCSQNTHVPPTFGQGTKVEIERTVAAPSVFIFPPSDEQLKSGTASVVCLLNNFYPREAKVQWKVDNALQSGNSQESVTEQDSKDSTYSLSSTLTLSKADYEKHKVYACEVTHQGLSSPVTKSFNRGEC",Ho/Con_2aR,[1],100 % of control
"GpH7-B3 variant T335_13S/GpL16-k0 (antibody, human IgG1, kappa, homodimerized: alteration in both H chains; also called Ho Ab T335_13S) heavy: not shown light: DIVMTQSPLSLPVTPGEPASISCQASESLVHSNRNTYLHWYLQKPGQSPQLLIYKVSNRFSGVPDRFSGSGSGTDFTLKISRVEAEDVGVYYCSQNTHVPPTFGQGTKVEIERTVAAPSVFIFPPSDEQLKSGTASVVCLLNNFYPREAKVQWKVDNALQSGNSQESVTEQDSKDSTYSLSSTLTLSKADYEKHKVYACEVTHQGLSSPVTKSFNRGEC",Ho/Con_2aR,[1],102 % of control
"GpH7-A5/GpH7-B3 variant A330_12R/GpL16-k0 (antibody, human IgG1, kappa, heterodimerized: alteration in one H chain only; also called He Ab A330_12R) heavy 1: not shown heavy 2: not shown light: DIVMTQSPLSLPVTPGEPASISCQASESLVHSNRNTYLHWYLQKPGQSPQLLIYKVSNRFSGVPDRFSGSGSGTDFTLKISRVEAEDVGVYYCSQNTHVPPTFGQGTKVEIERTVAAPSVFIFPPSDEQLKSGTASVVCLLNNFYPREAKVQWKVDNALQSGNSQESVTEQDSKDSTYSLSSTLTLSKADYEKHKVYACEVTHQGLSSPVTKSFNRGEC",He/Con_2aR,[2],104 % of control
"GpH7-A5/GpH7-B3 variant G237_04F/GpL16-k0 (antibody, human IgG1, kappa, heterodimerized: alteration in one H chain only; also called He Ab G237_04F) heavy 1: not shown heavy 2: not shown light: DIVMTQSPLSLPVTPGEPASISCQASESLVHSNRNTYLHWYLQKPGQSPQLLIYKVSNRFSGVPDRFSGSGSGTDFTLKISRVEAEDVGVYYCSQNTHVPPTFGQGTKVEIERTVAAPSVFIFPPSDEQLKSGTASVVCLLNNFYPREAKVQWKVDNALQSGNSQESVTEQDSKDSTYSLSSTLTLSKADYEKHKVYACEVTHQGLSSPVTKSFNRGEC",He/Con_2aR,[2],126 % of control
"GpH7-B3 variant S337_19Q/GpL16-k0 (antibody, human IgG1, kappa, homodimerized: alteration in both H chains; also called Ho Ab S337_19Q) heavy: not shown light: DIVMTQSPLSLPVTPGEPASISCQASESLVHSNRNTYLHWYLQKPGQSPQLLIYKVSNRFSGVPDRFSGSGSGTDFTLKISRVEAEDVGVYYCSQNTHVPPTFGQGTKVEIERTVAAPSVFIFPPSDEQLKSGTASVVCLLNNFYPREAKVQWKVDNALQSGNSQESVTEQDSKDSTYSLSSTLTLSKADYEKHKVYACEVTHQGLSSPVTKSFNRGEC",Ho/Con_2aR,[1],102 % of control
"GpH7-A5/GpH7-B3 variant G237_20W/GpL16-k0 (antibody, human IgG1, kappa, heterodimerized: alteration in one H chain only; also called He Ab G237_20W) heavy 1: not shown heavy 2: not shown light: DIVMTQSPLSLPVTPGEPASISCQASESLVHSNRNTYLHWYLQKPGQSPQLLIYKVSNRFSGVPDRFSGSGSGTDFTLKISRVEAEDVGVYYCSQNTHVPPTFGQGTKVEIERTVAAPSVFIFPPSDEQLKSGTASVVCLLNNFYPREAKVQWKVDNALQSGNSQESVTEQDSKDSTYSLSSTLTLSKADYEKHKVYACEVTHQGLSSPVTKSFNRGEC",He/Con_2aR,[2],138 % of control
"GpH7-B3 variant T335_10E/GpL16-k0 (antibody, human IgG1, kappa, homodimerized: alteration in both H chains; also called Ho Ab T335_10E) heavy: not shown light: DIVMTQSPLSLPVTPGEPASISCQASESLVHSNRNTYLHWYLQKPGQSPQLLIYKVSNRFSGVPDRFSGSGSGTDFTLKISRVEAEDVGVYYCSQNTHVPPTFGQGTKVEIERTVAAPSVFIFPPSDEQLKSGTASVVCLLNNFYPREAKVQWKVDNALQSGNSQESVTEQDSKDSTYSLSSTLTLSKADYEKHKVYACEVTHQGLSSPVTKSFNRGEC",Ho/Con_2aR,[1],109 % of control
